Reference: the supplement of paper PMC9112550, “Optimization of the antimicrobial peptide Bac7 by deep mutational scanning” (BMC Biology, 2022)

System: Escherichia coli TOP10
Experiment: shrunken log2 fold change of peptide-encoding DNA abundance (4.5 h post-induction vs induction); higher = less antimicrobial activity (less host growth inhibition)
Conditions: time post-induction: 4.5 h; library: site-saturation at positions 5, 18, 19, 20
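Note: peptides expressed intracellularly from a pBAD plasmid library in pooled LB shake-flask culture, induced with 0.3% L-arabinose, DNA abundance read by NGS, three biological replicates, DESeq2 with apeglm shrinkage.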

Sequence	shrunken log2 fold change
RRIRCRPPRLPRPRPRPVVYPRP	-0.0321
RRIRMRPPRLPRPRPRPERRPRP	0.689
RRIRFRPPRLPRPRPRPREDPRP	0.0505
RRIRARPPRLPRPRPRPMPFPRP	0.263
RRIRARPPRLPRPRPRPGVIPRP	0.0533
RRIRIRPPRLPRPRPRPHAPPRP	0.2
RRIRKRPPRLPRPRPRPLLRPRP	0.477
RRIRQRPPRLPRPRPRPICGPRP	-0.0167
RRIRTRPPRLPRPRPRPKNSPRP	-0.438
RRIRWRPPRLPRPRPRPTRHPRP	0.37
RRIRCRPPRLPRPRPRPEIWPRP	0.471
RRIRSRPPRLPRPRPRPKRDPRP	0.0509
RRIRARPPRLPRPRPRPWAGPRP	0.233
RRIRWRPPRLPRPRPRPMQYPRP	0.0439
RRIRDRPPRLPRPRPRPADYPRP	-0.0418
RRIRNRPPRLPRPRPRPLRVPRP	0.896
RRIRLRPPRLPRPRPRPYLFPRP	-0.602
RRIRCRPPRLPRPRPRPWGFPRP	0.248
RRIRDRPPRLPRPRPRPCMRPRP	0.311
RRIRTRPPRLPRPRPRPCCHPRP	-0.0132
RRIRFRPPRLPRPRPRPQFQPRP	0.0151
RRIRFRPPRLPRPRPRPNQEPRP	0.229

Sequence	shrunken log2 fold change
RRIRKRPPRLPRPRPRPDQKPRP	0.401
RRIRIRPPRLPRPRPRPNSTPRP	-0.722
RRIRNRPPRLPRPRPRPRYNPRP	-1.04
RRIRHRPPRLPRPRPRPFQEPRP	-0.00966
RRIRRRPPRLPRPRPRPSPGPRP	0.258
RRIRQRPPRLPRPRPRPTVPPRP	-0.0488
RRIRYRPPRLPRPRPRPTYHPRP	-0.663
RRIRDRPPRLPRPRPRPSKSPRP	-0.223
RRIRERPPRLPRPRPRPMANPRP	0.0745
RRIRERPPRLPRPRPRPLNKPRP	-0.47
RRIRDRPPRLPRPRPRPMCCPRP	0.0249
RRIRYRPPRLPRPRPRPAKGPRP	-0.183
RRIRHRPPRLPRPRPRPPRHPRP	0.231
RRIRIRPPRLPRPRPRPQHNPRP	-0.735
RRIRLRPPRLPRPRPRPEYNPRP	-0.15
RRIRYRPPRLPRPRPRPFVVPRP	-0.786
RRIRRRPPRLPRPRPRPCRRPRP	0.0946
RRIRKRPPRLPRPRPRPQPDPRP	0.459
RRIRDRPPRLPRPRPRPKATPRP	0.00253
RRIRERPPRLPRPRPRPWAYPRP	-0.552
RRIRNRPPRLPRPRPRPARYPRP	0.0763
RRIRFRPPRLPRPRPRPHPGPRP	-0.137

Sequence	shrunken log2 fold change
RRIRCRPPRLPRPRPRPDWMPRP	-0.11
RRIRLRPPRLPRPRPRPVVRPRP	0.148
RRIRIRPPRLPRPRPRPNLNPRP	-0.237
RRIRQRPPRLPRPRPRPIECPRP	-0.0217
RRIRARPPRLPRPRPRPWVVPRP	0.0153
RRIRMRPPRLPRPRPRPFMQPRP	-0.00899
RRIRDRPPRLPRPRPRPTWRPRP	0.756
RRIRGRPPRLPRPRPRPIRDPRP	0.0394
RRIRWRPPRLPRPRPRPGWHPRP	0.298
RRIRDRPPRLPRPRPRPYLGPRP	-0.021
RRIRFRPPRLPRPRPRPSTVPRP	-0.325
RRIRVRPPRLPRPRPRPSPHPRP	-0.571
RRIRRRPPRLPRPRPRPHRKPRP	-0.247
RRIRHRPPRLPRPRPRPGRSPRP	3.99
RRIRCRPPRLPRPRPRPASFPRP	-0.176
RRIRGRPPRLPRPRPRPEIFPRP	1.02
RRIRFRPPRLPRPRPRPIGLPRP	-0.251
RRIRKRPPRLPRPRPRPHYWPRP	-0.047
RRIRLRPPRLPRPRPRPWKSPRP	0.0457
RRIRFRPPRLPRPRPRPDWVPRP	0.0788
RRIRKRPPRLPRPRPRPAYIPRP	0.0173
RRIRERPPRLPRPRPRPMIFPRP	-0.223

Sequence	shrunken log2 fold change
RRIRTRPPRLPRPRPRPFKHPRP	-0.126
RRIRFRPPRLPRPRPRPSLQPRP	-0.31
RRIRYRPPRLPRPRPRPETKPRP	-0.485
RRIRYRPPRLPRPRPRPKYDPRP	-0.324
RRIRNRPPRLPRPRPRPVESPRP	-0.165
RRIRTRPPRLPRPRPRPYCPPRP	-0.821
RRIRVRPPRLPRPRPRPCLIPRP	-0.641
RRIRVRPPRLPRPRPRPCKTPRP	-0.00208
RRIRERPPRLPRPRPRPVPHPRP	-0.0329
RRIRIRPPRLPRPRPRPKEYPRP	-0.728
RRIRERPPRLPRPRPRPHIYPRP	-0.226
RRIRERPPRLPRPRPRPVAYPRP	-0.178
RRIRVRPPRLPRPRPRPHWMPRP	-0.32
RRIRIRPPRLPRPRPRPAEQPRP	-0.0532
RRIRFRPPRLPRPRPRPGYEPRP	-0.16
RRIRDRPPRLPRPRPRPDWAPRP	0.534
RRIRPRPPRLPRPRPRPKREPRP	0.1
RRIRYRPPRLPRPRPRPQYPPRP	-0.733
RRIRNRPPRLPRPRPRPYDAPRP	-0.066
RRIRPRPPRLPRPRPRPMDLPRP	-0.00399
RRIRNRPPRLPRPRPRPKEHPRP	-0.0991
RRIRFRPPRLPRPRPRPVYAPRP	-0.444

Sequence	shrunken log2 fold change
RRIRHRPPRLPRPRPRPYGQPRP	-0.00191
RRIRLRPPRLPRPRPRPGLVPRP	0.0948
RRIRCRPPRLPRPRPRPDDNPRP	0.423
RRIRPRPPRLPRPRPRPDCDPRP	0.0888
RRIRQRPPRLPRPRPRPQNWPRP	0.0213
RRIRNRPPRLPRPRPRPQYYPRP	-0.128
RRIRVRPPRLPRPRPRPWNPPRP	-0.0803
RRIRFRPPRLPRPRPRPDGCPRP	-0.0502
RRIRDRPPRLPRPRPRPRVPPRP	0.523
RRIRDRPPRLPRPRPRPERDPRP	0.312
RRIRQRPPRLPRPRPRPPTSPRP	-0.00728
RRIRKRPPRLPRPRPRPALPPRP	0.936
RRIRIRPPRLPRPRPRPSAPPRP	-0.00138
RRIRARPPRLPRPRPRPSTWPRP	-0.0645
RRIRVRPPRLPRPRPRPHMPPRP	-0.725
RRIRNRPPRLPRPRPRPAVSPRP	-0.203
RRIRGRPPRLPRPRPRPRLEPRP	1.16
RRIRNRPPRLPRPRPRPMAAPRP	0.582
RRIRQRPPRLPRPRPRPLIPPRP	0.114
RRIRIRPPRLPRPRPRPQMCPRP	0.0648
RRIRIRPPRLPRPRPRPTHVPRP	-0.0979
